Paper PMC2857095 (The Journal of Biological Chemistry, 2010)

Target: T1, DNA mismatch repair protein MutS, wild type (E. coli, UniProt P23909 1-853)
T1 sequence (looked up): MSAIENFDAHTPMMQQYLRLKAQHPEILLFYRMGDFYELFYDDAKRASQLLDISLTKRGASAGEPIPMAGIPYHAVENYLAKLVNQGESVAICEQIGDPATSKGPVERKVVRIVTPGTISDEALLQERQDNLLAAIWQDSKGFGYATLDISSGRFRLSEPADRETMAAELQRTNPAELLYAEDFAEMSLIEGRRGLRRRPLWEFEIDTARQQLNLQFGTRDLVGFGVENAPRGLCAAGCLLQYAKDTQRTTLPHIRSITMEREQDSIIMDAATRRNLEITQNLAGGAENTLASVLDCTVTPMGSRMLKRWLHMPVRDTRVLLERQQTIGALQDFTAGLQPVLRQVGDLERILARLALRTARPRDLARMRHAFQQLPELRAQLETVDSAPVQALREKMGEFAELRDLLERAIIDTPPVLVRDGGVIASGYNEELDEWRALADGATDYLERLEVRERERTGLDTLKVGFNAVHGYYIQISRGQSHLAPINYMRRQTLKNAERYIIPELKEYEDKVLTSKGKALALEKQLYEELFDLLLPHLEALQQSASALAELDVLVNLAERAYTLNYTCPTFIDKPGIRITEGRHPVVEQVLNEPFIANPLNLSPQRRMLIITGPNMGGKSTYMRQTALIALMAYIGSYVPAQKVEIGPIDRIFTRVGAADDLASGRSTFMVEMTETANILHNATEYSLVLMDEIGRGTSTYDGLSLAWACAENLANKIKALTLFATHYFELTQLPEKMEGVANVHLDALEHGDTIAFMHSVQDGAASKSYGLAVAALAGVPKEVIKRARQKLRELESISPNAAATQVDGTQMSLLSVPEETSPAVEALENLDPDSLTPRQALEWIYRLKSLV
Assay: SPR

binding result: binds
B1: MutL (natural protein, UniProt P23367 1-615, looked up)
chain: MPIQVLPPQLANQIAAGEVVERPASVVKELVENSLDAGATRIDIDIERGGAKLIRIRDNGCGIKKDELALALARHATSKIASLDDLEAIISLGFRGEALASISSVSRLTLTSRTAEQQEAWQAYAEGRDMNVTVKPAAHPVGTTLEVLDLFYNTPARRKFLRTEKTEFNHIDEIIRRIALARFDVTINLSHNGKIVRQYRAVPEGGQKERRLGAICGTAFLEQALAIEWQHGDLTLRGWVADPNHTTPALAEIQYCYVNGRMMRDRLINHAIRQACEDKLGADQQPAFVLYLEIDPHQVDVNVHPAKHEVRFHQSRLVHDFIYQGVLSVLQQQLETPLPLDDEPQPAPRSIPENRVAAGRNHFAEPAAREPVAPRYTPAPASGSRPAAPWPNAQPGYQKQQGEVYRQLLQTPAPMQKLKAPEPQEPALAANSQSFGRVLTIVHSDCALLERDGNISLLSLPVAERWLRQAQLTPGEAPVCAQPLLIPLRLKVSAEEKSALEKAQSALAELGIDFQSDAQHVTIRAVPLPLRQQNLQILIPELIGYLAKQSVFEPGNIAQWIARNLMSEHAQWSMAQAITLLADVERLCPQLVKTPPGGLLQSVDLHPAIKALKDE
